3 molecules from patent US20120316071A1 (published 2012) can be followed below.

For experiment [1], the target named is T1, rHuman Erythropoietin R/Fc Chimera, CF (R&D Systems Cat#963-ER) (human, UniProt P19235 25-250).
T1 construct: Bought recombinant protein; also called EPO R; EPO R/Fc; Fc part of the bought chimera not given
T1 sequence (looked up): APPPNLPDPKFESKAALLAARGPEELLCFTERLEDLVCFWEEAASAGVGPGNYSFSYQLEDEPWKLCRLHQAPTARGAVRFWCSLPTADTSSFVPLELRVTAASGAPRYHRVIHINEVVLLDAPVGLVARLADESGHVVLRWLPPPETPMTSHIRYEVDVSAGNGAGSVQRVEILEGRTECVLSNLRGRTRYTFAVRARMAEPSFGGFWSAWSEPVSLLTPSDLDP
As to the kind of experiment: ECL Multispot (MSD), antigen spotted; Fab 0.50 (µM); blank 142.

Experiment [2] addresses T2, Recombinant Human DLL4 (R&D Systems Cat#1506-D4/CF) (human, UniProt Q9NR61 27-529).
T2 construct: Bought recombinant protein; also called delta-like protein 4; rHuman DLL4
Described as above.

In experiment [3] the target is T3, rHuman ErbB2/Fc Chimera, CF (R&D Systems Cat#1129-ER) (human, UniProt P04626 23-652).
T3 construct: Bought recombinant protein; Fc part of the bought chimera not given
Described as above.

Experiment [4] deals with T4, rHuman EGF R/Fc Chimera, CF (R&D Systems Cat#344-ER) (human, UniProt P00533 25-645).
T4 construct: Bought recombinant protein; Fc part of the bought chimera not given
The experiment is described as above.

Experiment [5] has as its target T5, rHuman HGF R/c-MET/Fc Chimera, CF (R&D Systems Cat#358-MT/CF) (human, UniProt P08581 25-932).
T5 construct: Bought recombinant protein; also called HGF R/Fc; Fc part of the bought chimera not given
The experiment is described as above.

Experiment [6] deals with T6, rHuman Notch-1/Fc Chimera, CF (R&D Systems Cat#3647-TK) (human, UniProt P46531 19-526).
T6 construct: Bought recombinant protein; Fc part of the bought chimera not given
Described as above.

Experiment [7] addresses T7, rHuman CD44/Fc Chimera, CF (R&D Systems Cat#3660-CD) (human, UniProt P16070 21-220).
T7 construct: Bought recombinant protein; Fc part of the bought chimera not given
The description is as above.

In experiment [8] the target is T8, rHuman IGF-1 sR, CF (R&D Systems Cat#391-GR) (human, UniProt P08069 31-932).
T8 construct: Bought recombinant soluble receptor; also called insulin-like growth factor-1 soluble receptor
The experiment is described as above.

In experiment [9] the target is T9, rHuman P-Cadherin/Fc Chimera, CF (R&D Systems Cat#861-PC) (human, UniProt P22223 108-654).
T9 construct: Bought recombinant protein; Fc part of the bought chimera not given
The description is as above.

Experiment [10] deals with T10, rHuman ErbB2/Fc Chimera, CF (R&D Systems Cat#1129-ER) (human, UniProt P04626 23-652).
T10 construct: Bought recombinant protein; also called human epidermal growth factor 2 receptor; Fc part of the bought chimera not given
The experiment in a line: MSD multispot ECL, antigen spotted on plate; Fab 0.1275 uM; blank spot 530.

Experiment [11] deals with T11, rHuman HGF R/c-MET/Fc Chimera, CF (R&D Systems Cat#358-MT/CF) (human, UniProt P08581 25-932).
T11 construct: Bought recombinant protein; also called HGF R/Fc; hepatocyte growth factor receptor; Fc part of the bought chimera not given
The experiment is described as above.

The target in experiment [12] is T12, rHuman Notch-1/Fc Chimera, CF (R&D Systems Cat#3647-TK) (human, UniProt P46531 19-526).
T12 construct: Bought recombinant protein; Fc part of the bought chimera not given
The description is as above.

The target in experiment [13] is T13, rHuman CD44/Fc Chimera, CF (R&D Systems Cat#3660-CD) (human, UniProt P16070 21-220).
T13 construct: Bought recombinant protein; Fc part of the bought chimera not given
Described as above.

The target of experiment [14] is T14, Recombinant Human DLL4 (R&D Systems Cat#1506-D4/CF) (human, UniProt Q9NR61 27-524).
T14 construct: Bought recombinant protein; also called delta-like protein 4; rHuman DLL4
The experiment in a line: Multispot ECL (MSD) assay, antigen spotted on plate, Fab at 0.312 µM; blank spot 1977.

Experiment [15] concerns the target T15, rHuman ErbB2/Fc Chimera, CF (R&D Systems Cat#1129-ER) (human, UniProt P04626 23-652).
T15 construct: Bought recombinant protein; also called human epidermal growth factor 2 receptor (ErbB2); Fc part of the bought chimera not given
The experiment is described as above.

For experiment [16], the target named is T16, rHuman EGF R/Fc Chimera, CF (R&D Systems Cat#344-ER) (human, UniProt P00533 25-645).
T16 construct: Bought recombinant protein; also called epidermal growth factor receptor (EGF R); Fc part of the bought chimera not given
The experiment is described as above.

Experiment [17] deals with T17, rHuman CD44/Fc Chimera, CF (R&D Systems Cat#3660-CD) (human, UniProt P16070 21-220).
T17 construct: Bought recombinant protein; Fc part of the bought chimera not given
The experiment is described as above.

In experiment [18] the target is T18, rHuman IGF-1 sR, (IGF-1 sR), CF (R&D Systems Cat#391-GR) (human, UniProt P08069 31-932).
T18 construct: Bought recombinant soluble receptor; also called insulin-like growth factor-1 soluble receptor
Described as above.

Experiment [19] has as its target T19, rHuman P-Cadherin/Fc Chimera, CF (R&D Systems Cat#861-PC) (human, UniProt P22223 108-654).
T19 construct: Bought recombinant protein; Fc part of the bought chimera not given
The description is as above.

B1: Fab VH1-46_IGHD6-6*01_IGHJ1*01 S102A/S103P/S104F (APF) & L6_IGKJ1*01 (Fab, V domains shown)
VH: QVQLVQSGAEVKKPGASVKVSCKASGYTFTSYYMHWVRQAPGQGLEWMGIINPSGGSTSYAQKFQGRVTMTRDTSTSTVYMELSSLRSEDTAVYYCAREEYAPFSAEYFQHWGQGTLVTVSS
VL: not shown
notes: Tested as a Fab made in E. coli: VH cloned in Plasmid A (CH1 constant region, His6 and Flag tags), VL in Plasmid C (kappa constant region); also called H:APF & L:wt; APF triple mutant
For B1, the ECL signal in experiment [1] was determined as 235; in experiment [2] it was 6670; in [3], 199; in experiment [4], 152; in experiment [5] it was 182; in [6], 230. In addition, the results for the ECL signal in [7], in experiment [8] and in experiment [9] were 207, 190 and 161, respectively.

B2: Fab VH4-34_IGHD7-27*01_IGHJ4*01 & L5_IGKJ1*01 (Fab, V domains shown)
VH: QVQLQQWGAGLLKPSETLSLTCAVYGGSFSGYYWSWIRQPPGKGLEWIGEINHSGSTNYNPSLKSRVTISVDTSKNQFSLKLSSVTAADTAVYYCARANWGDYFDYWGQGTLVTVSS
VL: DIQMTQSPSSVSASVGDRVTITCRASQGISSWLAWYQQKPGKAPKLLIYAASSLQSGVPSRFSGSGSGTDFTLTISSLQPEDFATYYCQQANSFPPWTFGQGTKVEIKR
notes: Germline library Fab expressed in E. coli; VH was cloned into Plasmid A, which adds CH1 with His6 and Flag tags
With B2, the ECL signal in [10] worked out at 857; in experiment [11], 853; in experiment [12] it was 1500; in experiment [13], 926.

B3: Fab VH1-46_IGHD7-27*01_IGHJ2*01 & L6_IGKJ1*01 (Fab, V domains shown)
VH: QVQLVQSGAEVKKPGASVKVSCKASGYTFTSYYMHWVRQAPGQGLEWMGIINPSGGSTSYAQKFQGRVTMTRDTSTSTVYMELSSLRSEDTAVYYCARANWGYWYFDLWGRGTLVTVSS
VL: not shown
notes: Germline Fab made in E. coli; VH was cloned in Plasmid A (CH1 constant region, His6 and Flag tags) and the kappa VL in Plasmid C (kappa CL); Only the variable domains are tied to this Fab by name
With B3, the ECL signal in [14] turned out to be 5480; in experiment [15], 3660; in experiment [16], 4330; in experiment [17] it was 4170; in [18], 3510; in experiment [19] it was 7100.
